# Measurements published in the nanobody polyreactivity screen of Harvey et al. (2022).
# Assay: yeast display, Sf9 membrane polyspecificity reagent, FACS + sequencing; frameworks hold sequencing errors
# Outline: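 A synthetic nanobody library was expressed on Saccharomyces cerevisiae BJ5465 by galactose induction for 36–48 hours. The library was stained for 1 hour at 4 °C with 10% biotinylated, detergent-solubilized Sf9 membrane reagent and enriched with streptavidin microbeads before FACS. Low and high (top ~1%) gates were set on anti-HA fluorescence for expression and streptavidin fluorescence for reagent binding, and each polyreactivity label reflects the gate of origin.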
row,Sequence,polyreactivity (PSR sort gate)
1,QVQLVESGGGLVQAGGSLRLSCAASGRIFTYYAMRWYRQAPGKERELVAGITGSGASTYYADSVKGRFTISRDNAKNTVYLQMNSLKPEDTAVYYCNAPYVIRPFRGRYDYWGQGTLVTVSS,high polyreactivity
2,QVQLVESGGGLVQAGGSLRLSCAASGRIFTYYDMGWYREAPGKERELVAAITWGGGSTYYADSVKGRFTISRDNAKNSVYLQMNSLKPEDSAVYYCATLYYTFVWRHDYWGQGTQVTVSS,low polyreactivity
3,QVQLVESGGGLVQAGGSLRLSCAASGRIFTYYTMAWYRQAPGKERELVAAISWSGGRTYYADSVKGRFTISRDNAKNTVYLQMNSLKPEDTAVYYCARRRAVRFYYWGQGTQVTVSS,high polyreactivity
4,QVQLVESGGGLVQAGGSLRLSCAASGRIFTYYTMGWYRQAPAKYREFVAAISWSGTSTYYADSVKGRFTISRDNAKNTFYLQMNSLKPEDTAVYYFAARDPPRAGYDYWGQGTHVTVSS,high polyreactivity
5,QVQLVESGGGLVQAGGSLRLSCAASGRIFVANAMGWYRQAPGKERELVAAISGRGSRTYYADSVKGRFTISRDNAKNAVYLQMNSLKPEDTAVYYCNARQRRNPGGYGYWGQGTQVTVSS,high polyreactivity
6,QVQLVESGGGLVQAGGSLRLSCAASGRIFVDNAMGWYRQAPGKERELVATISWSGGSTYADSVKGRFTISRDNAKNTVYLQMNSLKPEDTAVYYCAADGSWQFYTLYQEFDYWGQGTQVTVSS,low polyreactivity
7,QVQLVESGGGLVQAGGSLRLSCAASGRIFVFNAMGWYRQAPGKEREFVAVISTGGGSTYYADSVKGRFTISRDNAKNTVYLQMNSLKPEDTAVYYCAAEWRVYYATYGYWGQGTQVTVSS,high polyreactivity
8,QVQLVESGGGLVQAGGSLRLSCAASGRIFVGYAMGWYRQAPGKEREFVAAITFRGGTTYYADSVKGRFTITRDYAKNTVYLQMNSLKPEDTAVYYCAVPLYLYSVEYGYWGQGNQVTVSS,low polyreactivity
9,QVQLVESGGGLVQAGGSLRLSCAASGRIFVGYAMGWYRQAPGKETELVAAISRDGDNTFYADSVKGRFTISRDNAKNTVYLQMNSLKPEDTAVYYCAVDYWVWYGSAYAYDYYWGQGTQVTVSS,low polyreactivity
10,QVQLVESGGGLVQAGGSLRLSCAASGRIFVGYPMGWYRQAPGKERELVAAITSGGSTYYADSVKGRFTISRDNAKNTVSFQMNSLKPEDTAVYYCNAAYQFDSYHLGGYRYEYWGQGTQVTVSS,low polyreactivity
11,QVQLVESGGGLVQAGGSLRLSCAASGRIFVGYYAMGWYRQAPGKERELVAAITIGGRTYYADSVKGRFTISRDNAKNTVYLQMNSLKPEDTAVYYCAASKYTRAYQEYGYWGQGTQVTVSS,high polyreactivity
12,QVQLVESGGGLVQAGGSLRLSCAASGRIFVHYVMGWYRQAPGKERELVAAITVSGGGTYYADSVKGRFTISRDNAKNTVYFQMNSLTPEDTAVYYCNAVPHPYDWGQGTQLTVSS,low polyreactivity
13,QVQLVESGGGLVQAGGSLRLSCAASGRIFVINAMGWYRQAPGKEREFVAGITSSGNTNYADSVKGRFTISRDNAKNTVYLQMNSLKPEDTAVYYCNAQVYLTWLTYWLYYPPNDYWGQGTQVTVSS,low polyreactivity
14,QVQLVESGGGLVQAGGSLRLSCAASGRIFVINAMGWYRQAPGKERELVAAISQSGGSTYYADSVKGRFTISRDNAKNNVYLQMNSLKPEDTAVYYCNALSNVPYDYWGQGTQVTVSS,low polyreactivity
15,QVQLVESGGGLVQAGGSLRLSCAASGRIFVINAMGWYRQAPGKERELVAAISRRGANTYYADSVKGRFTISRDNAKNTVYLQMNSLKPEDTAVYYCNKVTVYRFRGDSWGQGTQVTVSS,high polyreactivity
16,QVQLVESGGGLVQAGGSLRLSCAASGRIFVINAMGWYRQAPGKERELVADITWSGGSTYADSVKGRFTISRDNAKNTVYLQMNSLKPEETAVYYCAKQRGGQPRSSTYYYWGQGTQVTVSS,high polyreactivity
17,QVQLVESGGGLVQAGGSLRLSCAASGRIFVKYAMGWYRQAPGKERELVARITRGGRTNYADSVKGRFTISRDNAKNTVYLQMNSLKPEDTAVYYCNAGWGMRLSWLGNYWGQGTQVTVSS,high polyreactivity
18,QVQLVESGGGLVQAGGSLRLSCAASGRIFVKYSMGWYRQAPGKERELVAAISKSGGSTYYADSVKGRFTISRDNAKNTVYLQMNSLKPEDTAVYYCATRSRDQYSVSYRLDYWGQGTQVTVSS,low polyreactivity
19,QVQLVESGGGLVQAGGSLRLSCAASGRIFVLYAMGWYRQAPGKERELVAAITSDGSSTYYADSVKGRFTISRDNAKNTVYLQMISLKPEDNAVYYCNKVQGWARYRSGKDMGYWGQGTQVTVSS,low polyreactivity
20,QVQLVESGGGLVQAGGSLRLSCAASGRIFVLYAMGWYRQAPGKERELVADITFDGGSTYYADSVKGRFTISRDNAKNTVYLQMNSLKPEDTAVSFCAARYRWSRKRYNDYDYWGQGTQVSVSS,high polyreactivity
21,QVQLVESGGGLVQAGGSLRLSCAASGRIFVPNAMGWYRPAPGKERELVAAISLRGGSTYYADSVKGRFTISRDNAKYTVYLQMNSLKPEDTAVYYCGWAYRYPHDYWGQGTQVTVSS,high polyreactivity
22,QVQLVESGGGLVQAGGSLRLSCAASGRIFVPNAMGWYRPPPGKERELVAAINWGGGSTYYADSVKGRFTISRDNAKNTVYLQMNSLKPEDTAVYYCAADHPYTIGVLPNQQFDYWGQGTQVTVSS,low polyreactivity

row,Sequence,polyreactivity (PSR sort gate)
1,QVQLVESGGGLVQAGGSLRLSCAASGRIFVPNAMGWYRQAPGKERELVAAISSSGGSTYYADSVKGRFTISRDNAKNTVYLQMNSLKPEDTAVYDCNKVQSTANDYWGQGTQVTVSS,low polyreactivity
2,QVQLVESGGGLVQAGGSLRLSCAASGRIFVPNPMGWYRQAPGKDRELVAAITNGGRTKYADSVKGRFTISRDNAKNTVYLQMNSLKPEDTAVYYCAADLYRWFYYWGQGTQVTVSS,high polyreactivity
3,QVQLVESGGGLVQAGGSLRLSCAASGRIFVPNTMGWYRQAPGKERELVAAINTGGRTYYADSVKGRFTISRDNAKNTVYLQMNSLKPEDTAVYYCAVFSLKLGYIYDYWGQGTQVTVSS,high polyreactivity
4,QVQLVESGGGLVQAGGSLRLSCAASGRIFVPYVMGWYRQAPGKERELVASISDSDTSTYYADSVKGRFTISRDNATNTVYLQMNSLKPEDTAVYYCNVDYWGQGTQVTVSS,low polyreactivity
5,QVQLVESGGGLVQAGGSLRLSCAASGRIFVTNAMGWYRQAPGKERELVAAITRGGSTNYADSVKGRFTISRDNAKNTVYLQMNSLKPEDTAVYYCAAKRRYYGPWSRIGYDYWGHGTQVTVSS,low polyreactivity
6,QVQLVESGGGLVQAGGSLRLSCAASGRIFVTNDMGWYRQAPGKERELVAAISLSSGSTYYADSVKGRFTISRDNAKNTVYLQMNSLKPEDTAVYYCAADIFPFGYFLFRHGYWGQGTQVTVSS,low polyreactivity
7,QVQLVESGGGLVQAGGSLRLSCAASGRIFVTYAMGLYRQAPGKERELVAVISWSGGSTYYADSVKGRFTISRDNAKNTVYLQMNSLKPEDTAVYYCARGLRKVRFDYWGQGTQVTVSS,low polyreactivity
8,QVQLVESGGGLVQAGGSLRLSCAASGRIFVTYAMGWYRQAPGKERELVAAITSRGGRTYDADSVKGRFTISRDNAKNTVYLQMNSLKPEDTAVYYCAAYPGPGARYYYWGQGTQVTVSS,high polyreactivity
9,QVQLVESGGGLVQAGGSLRLSCAASGRIFVTYAMGWYRQAPGKERELVAVISWSGGSTYYADSVKGRITISRDNAKNTVYLQINSLKPEDTAVYYCARGLRKVRFDYWGQGTQVTVSS,low polyreactivity
10,QVQLVESGGGLVQAGGSLRLSCAASGRIFVVNAMGWYRQAPGKERELVATITRSGGITYYADSVKGRFTISRDNAKNTVYLQMNSLKPEDTAVYYCNADVLFYTYYTRGRFDFDYWGQGTQVTVAS,low polyreactivity
11,QVQLVESGGGLVQAGGSLRLSCAASGRIFVVNDMGWYRQAPGKERELVAAINSGGRTNYADSVKGRFTISRDNAKNTVYLQMNSLKPEDTAVYYCNAKRTGPWFLHVPVYYWGQGTQVTVSS,low polyreactivity
12,QVQLVESGGGLVQAGGSLRLSCAASGRIFVWYAMGWYRQATGKERELVAAITRGGSTNYADSVKGRFTISRDNAKNTVYLQMNSLKPEDTAVYYCAARSPYRTRNDYWGQGTQVTVSS,low polyreactivity
13,QVQLVESGGGLVQAGGSLRLSCAASGRIFVYNAKGWNRQAPGKERQLVAAISYNGGGTYYADSVKGRFTISRDNAKNTVYLQMNSLKPEDTAVYYCAARYRSWTGKYEYWGQGTQVTVSS,high polyreactivity
14,QVQLVESGGGLVQAGGSLRLSCAASGRIFVYNAKGWYRQAAGKERELVAAISYTGGTTYYADSVKGRFTISRDNAKKTVYLQMKSLKPEDTAVFFCAALWWWNRQVRYEYWGQGTQVTVSS,low polyreactivity
15,QVQLVESGGGLVQAGGSLRLSCAASGRIFVYNAMGWSRQAPGKVRELVASITSSGGSTSYADSVKGRFTISRDNAKNTVYLQMNSLKPEDTAVYSCAADVQPDTRSTPEMDYWGQGTQVTVSS,low polyreactivity
16,QVQLVESGGGLVQAGGSLRLSCAASGRIFVYNAMGWYRQAPGKERELVAAINSGDSTYYADSVKGRFTISRDNAKNTVYLQMNSLKPEDTAVYYCAADIHYYPGYLAYDYWGQGTQVTVSS,low polyreactivity
17,QVQLVESGGGLVQAGGSLRLSCAASGRIFVYNVMGWSRQSPGKERELVAAISWGTGSTYADSVKGRFTISRDNAKNTVYLQMNSLKPEDTAVYYCAADWLSTKNDYWGQGTQVTVSS,low polyreactivity
18,QVQLVESGGGLVQAGGSLRLSCAASGRIFVYYAMGWYRQAPGKERELVAAITSRDDSTYYADSVKGRFTISRDNAKNTVYLQMNSLKPEDTAVYYCNVVPKSRDWQSYGSWGQGTQVTVSS,high polyreactivity
19,QVQLVESGGGLVQAGGSLRLSCAASGRIFVYYAMGWYRQAPGKERELVATISSGGSTYYADSVKGRFTISRDNAKNTVYLQMNSLKPEDTAVYYCAADNVIRYLAYYYKGDYWGQGTQVTVSS,low polyreactivity
20,QVQLVESGGGLVQAGGSLRLSCAASGRIFVYYAMGWYRQAPGNERELVAAITSGGTTYYADSVKGRFTISRDNAKNTVYLQMNSLKPEDTAVYYCAKVGRSDLGYDYWGQGTQVTVSS,low polyreactivity
21,QVQLVESGGGLVQAGGSLRLSCAASGRIFVYYTMGWYRPAPGKEREFVAAITRSGGRTYYADSVKGRFTISRDNAKNTVYLQMNSLKPEDTAVYYCNRDPTYLAYYIKYDSWGQGTQVTVSS,high polyreactivity
